In patent US20140227283A1 (INSERM INSTITUT NATIONAL DE LA SANTE ET DE LA RECHERCHE …, published 2014):

What was measured:
[1] = molecular target: human Axl extracellular domain fused to human Fc domain (hAxl-hFc protein; R&D system) (human) (UniProt P30530); test: SPR (BIAcore-3000), hAxl-hFc amine-coupled on a CM5 chip, mAb injected at 2 to 133 nM, 25° C., one-to-one Langmuir model
[2] = molecular target: human Axl extracellular domain fused to human Fc domain (hAxl-hFc protein; R&D system) (human) (UniProt P30530); test: SPR (BIAcore), hAxl-hFc on a CM5 chip; 3E3-E8 (666 nM) injected second, after Gas6 (625 nM), without removing Gas6
[3] = molecular target: human Axl extracellular domain fused to human Fc domain (hAxl-hFc protein; R&D system) (human) (UniProt P30530); test: SPR (BIAcore), hAxl-hFc on a CM5 chip; 3E3-E8 (666 nM) injected first, before Gas6
[4] = molecular target: T1, human Axl on the surface of cells (human, UniProt P30530 26-894); test: flow cytometry on A549 cells
T1 construct: whole, on cells; Endogenous Axl of the cell lines; also called cell surface Axl; Axl receptor
T1 sequence (looked up): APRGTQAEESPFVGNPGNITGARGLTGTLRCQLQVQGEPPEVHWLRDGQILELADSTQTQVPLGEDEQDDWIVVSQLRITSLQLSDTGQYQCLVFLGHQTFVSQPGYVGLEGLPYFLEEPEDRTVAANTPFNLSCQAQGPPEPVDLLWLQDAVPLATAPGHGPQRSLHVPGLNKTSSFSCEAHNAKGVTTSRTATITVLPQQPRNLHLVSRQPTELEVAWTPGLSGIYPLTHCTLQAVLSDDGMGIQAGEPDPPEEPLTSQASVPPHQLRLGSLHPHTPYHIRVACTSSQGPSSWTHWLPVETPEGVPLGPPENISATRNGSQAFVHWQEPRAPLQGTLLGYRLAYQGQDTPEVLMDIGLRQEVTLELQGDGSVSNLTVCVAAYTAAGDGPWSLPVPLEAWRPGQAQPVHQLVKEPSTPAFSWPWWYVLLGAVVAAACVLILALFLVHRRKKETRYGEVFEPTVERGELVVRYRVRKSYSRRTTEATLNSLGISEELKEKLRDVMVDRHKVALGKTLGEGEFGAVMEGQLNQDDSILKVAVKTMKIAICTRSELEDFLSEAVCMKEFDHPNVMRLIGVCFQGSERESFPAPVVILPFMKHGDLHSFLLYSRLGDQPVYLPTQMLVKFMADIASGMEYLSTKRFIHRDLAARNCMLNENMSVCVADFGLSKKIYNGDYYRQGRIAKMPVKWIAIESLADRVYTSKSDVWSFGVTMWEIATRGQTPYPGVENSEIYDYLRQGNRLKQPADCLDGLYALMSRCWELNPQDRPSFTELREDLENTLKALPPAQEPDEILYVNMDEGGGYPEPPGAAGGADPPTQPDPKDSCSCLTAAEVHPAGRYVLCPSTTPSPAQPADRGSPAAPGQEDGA
From the text: FIG. 2: Flow cytometry analysis of cell surface Axl in A549.

[5] = molecular target: T2, human Mer-Fc (human, UniProt Q12866 26-499, limits assumed); test: ELISA on coated Fc fusion proteins
T2 construct: also called h-Mer; not shown: Fc part
T2 sequence (looked up): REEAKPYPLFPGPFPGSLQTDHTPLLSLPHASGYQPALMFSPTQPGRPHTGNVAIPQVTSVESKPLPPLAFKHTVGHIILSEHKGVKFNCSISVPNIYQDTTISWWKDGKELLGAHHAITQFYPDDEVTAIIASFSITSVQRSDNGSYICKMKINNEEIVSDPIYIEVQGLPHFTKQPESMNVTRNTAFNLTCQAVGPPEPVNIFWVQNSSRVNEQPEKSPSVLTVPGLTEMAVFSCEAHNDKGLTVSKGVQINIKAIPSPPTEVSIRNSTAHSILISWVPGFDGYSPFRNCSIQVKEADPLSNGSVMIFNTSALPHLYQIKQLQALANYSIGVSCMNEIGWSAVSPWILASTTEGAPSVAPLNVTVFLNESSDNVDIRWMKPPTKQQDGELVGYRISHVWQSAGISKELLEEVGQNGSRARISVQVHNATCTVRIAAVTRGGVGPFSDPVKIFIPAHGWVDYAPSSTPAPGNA
Method: (§1) FIG. 1: ELISA experiments to investigate the affinity and the specificity of mouse monoclonal antibodies against hAxl. […] After washing, HRP-conjugated anti-mouse IgG was added.

[6] = molecular target: T3, mouse Axl-Fc (mouse, UniProt Q00993 20-443, limits assumed); test: ELISA on coated Fc fusion proteins
T3 construct: also called m-Axl; not shown: Fc part
T3 sequence (looked up): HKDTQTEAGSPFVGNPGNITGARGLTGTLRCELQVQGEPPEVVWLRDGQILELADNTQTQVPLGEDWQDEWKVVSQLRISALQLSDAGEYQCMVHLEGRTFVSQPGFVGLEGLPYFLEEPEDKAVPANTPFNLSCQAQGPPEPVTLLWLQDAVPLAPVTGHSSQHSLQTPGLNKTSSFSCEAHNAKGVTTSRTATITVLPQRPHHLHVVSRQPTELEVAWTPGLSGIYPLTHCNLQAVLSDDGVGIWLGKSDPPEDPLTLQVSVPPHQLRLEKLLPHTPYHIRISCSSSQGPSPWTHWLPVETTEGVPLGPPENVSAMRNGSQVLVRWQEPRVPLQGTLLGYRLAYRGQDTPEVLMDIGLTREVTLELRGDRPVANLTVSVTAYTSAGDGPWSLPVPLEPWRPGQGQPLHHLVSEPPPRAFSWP
Method: as §1

[7] = molecular target: T4, Tyro-3-Fc (h-Tyro-3) (human, UniProt Q06418 41-428, limits assumed); test: ELISA on coated Fc fusion proteins
T4 construct: also called human Tyro-3-Fc; not shown: Fc part
T4 sequence (looked up): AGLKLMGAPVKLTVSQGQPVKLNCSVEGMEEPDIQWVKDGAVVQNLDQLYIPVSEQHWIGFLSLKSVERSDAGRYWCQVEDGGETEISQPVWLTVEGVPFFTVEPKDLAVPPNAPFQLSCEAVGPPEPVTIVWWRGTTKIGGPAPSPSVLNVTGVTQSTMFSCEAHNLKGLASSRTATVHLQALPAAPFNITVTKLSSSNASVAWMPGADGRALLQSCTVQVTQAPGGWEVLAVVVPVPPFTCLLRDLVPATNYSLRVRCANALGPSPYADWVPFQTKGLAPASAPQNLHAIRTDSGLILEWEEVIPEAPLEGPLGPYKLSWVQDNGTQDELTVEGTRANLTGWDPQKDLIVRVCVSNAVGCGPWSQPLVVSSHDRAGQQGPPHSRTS
Method: as §1

B1: murine anti-Axl monoclonal antibody 3E3E8 (antibody, V domains shown)
VH: QVQLKESGPGLVAPSQSLSITCSVSGFSLTNYAVHWVRQPPGKGLEWLGVIWAGGSTNYNSALMSRLRISKDNSKSQVFFKMNSLQTDDTAMYYCARYYGSSLYPMDYWGQGTSVTVSS
VL: DIVMTQAAPSVPVTPGESVSISCRSSKSLLHSNGNTYLYWFLQRPGQSPQLLIYRMSNLASGVPDRFSGSGSGTVFTLRISGVEAEDVGVYYCMQHLEYPWTFGGGTELEIK
notes: also called mAb 3E3-E8; mAb 3E3E8
- Kd [1]: 1.6 nM
- Response (RU) [2]: 2420 RU
- Response (RU) [3]: 2500 RU
- binding result [4]: binds
- binding result [5]: no binding
- binding result [6]: no binding
- binding result [7]: no binding
